Experimental data as given in the Immune Epitope Database (IEDB).

Tests used:
HLA-A*02:01 [1] = assay: IEDB peptide-MHC binding, purified MHC/competitive/radioactivity; filed as Kd, often an IC50 or EC50 that approximates it; ≥ and ≤ were set here for values at or beyond the usual limits of such assays
HLA-B*35:01 = assay: as above
HLA-A*02:02 = assay: as above; conditions: source organism: Homo sapiens
HLA-A*30:01 = assay: as above
HLA-A*32:01 = assay: as above
HLA-B*08:01 [2] = assay: as above
HLA-B*15:01 [3] = assay: as above
HLA-B*15:03 = assay: as above
HLA-B*07:02 [4] = assay: as above
HLA-B*51:01 = assay: as above
HLA-B*53:01 = assay: as above
HLA-A*01:01 [5] = assay: IEDB peptide-MHC binding, purified MHC/direct/fluorescence; filed as Kd, often an IC50 or EC50 that approximates it; ≥ and ≤ were set here for values at or beyond the usual limits of such assays
HLA-A*02:01 [6] = assay: as above
HLA-A*03:01 = assay: as above
HLA-A*11:01 = assay: as above
HLA-A*24:03 = assay: as above
HLA-A*26:01 [7] = assay: as above
HLA-A*31:01 = assay: as above
HLA-A*69:01 = assay: as above
HLA-B*07:02 [8] = assay: as above
HLA-B*08:01 [9] = assay: as above
HLA-B*15:01 [10] = assay: as above
HLA-B*27:05 = assay: as above
HLA-B*40:01 = assay: as above
HLA-B*44:02 = assay: as above
HLA-B*58:01 = assay: as above
HLA-A*02:01 [11] = assay: IEDB peptide-MHC binding, purified MHC/competitive/fluorescence; filed as Kd, often an IC50 or EC50 that approximates it; ≥ and ≤ were set here for values at or beyond the usual limits of such assays; conditions: source organism: Salmonella enterica subsp. enterica serovar Typhi
HLA-A*26:01 [12] = assay: as above; conditions: source organism: Salmonella enterica subsp. enterica serovar Typhi
HLA-A*02:03 = assay: IEDB peptide-MHC binding, purified MHC/competitive/radioactivity; filed as Kd, often an IC50 or EC50 that approximates it; ≥ and ≤ were set here for values at or beyond the usual limits of such assays; conditions: source organism: Dengue virus 2 Jamaica/1409/1983
HLA-A*23:01 = assay: as above
HLA-A*24:02 = assay: as above; conditions: source organism: Dengue virus 4 Philippines/H241/1956
HLA-A*01:01 [13] = assay: as above
HLA-A*30:02 = assay: as above; conditions: source organism: Dengue virus 4 Philippines/H241/1956
[14] = source organism: Dengue virus 2 Jamaica/1409/1983
[15] = source organism: Vaccinia virus WR
[16] = source organism: Dengue virus 4 Philippines/H241/1956
[17] = source organism: Neisseria gonorrhoeae
[18] = source organism: Dengue virus 1 Brazil/97-11/1997
[19] = source organism: Vibrio parahaemolyticus
[20] = source organism: Vibrio vulnificus
[21] = source organism: Vaccinia virus Copenhagen
[22] = source organism: Dengue virus 3 Martinique/1243/1999
[23] = source organism: Dengue virus 3 Singapore/8120/1995
[24] = source organism: Giardia lamblia ATCC 50803

## ALYGSVPVL
HLA-A*02:01 [1]; source organism: Homo sapiens
  Kd: 8.1 nM

## DPASIAARGY
HLA-B*35:01; [14]
  Kd: 5620 nM

## EMIQLQEEL
HLA-A*02:01 [1]; source organism: Homo sapiens
  Kd: 3100 nM
HLA-A*02:02
  Kd: 123 nM

## FIRYRMHPM
HLA-A*30:01; [15]
  Kd: 2790 nM
HLA-A*32:01; [15]
  Kd: 14300 nM
HLA-B*08:01 [2]; [15]
  Kd: 0.208 nM
HLA-B*15:01 [3]; [15]
  Kd: 1.22 nM
HLA-B*15:03; [15]
  Kd: 21.6 nM

## FPTSRTTWSI
HLA-B*07:02 [4]; [16]
  Kd: 55.5 nM
HLA-B*35:01; [16]
  Kd: 327 nM
HLA-B*51:01; [16]
  Kd: 184 nM
HLA-B*53:01; [16]
  Kd: 16.4 nM

## GLDVLTAKV
HLA-A*02:01 [1]; source organism: Homo sapiens
  Kd: 132 nM

## GPLRMVLAF
HLA-B*07:02 [4]; [16]
  Kd: 5.58 nM
HLA-B*35:01; [16]
  Kd: 1230 nM
HLA-B*53:01; [16]
  Kd: 122 nM

## GSDKQVVGQ
HLA-A*01:01 [5]; [17]
  Kd: ≥ 20 µM
HLA-A*02:01 [6]; [17]
  Kd: ≥ 20 µM
HLA-A*03:01; [17]
  Kd: ≥ 20 µM
HLA-A*11:01; [17]
  Kd: ≥ 20 µM
HLA-A*24:03; [17]
  Kd: ≥ 20 µM
HLA-A*26:01 [7]; [17]
  Kd: ≥ 20 µM
HLA-A*31:01; [17]
  Kd: ≥ 20 µM
HLA-A*69:01; [17]
  Kd: ≥ 20 µM
HLA-B*07:02 [8]; [17]
  Kd: ≥ 20 µM
HLA-B*08:01 [9]; [17]
  Kd: ≥ 20 µM
HLA-B*15:01 [10]; [17]
  Kd: ≥ 20000 nM
HLA-B*27:05; [17]
  Kd: ≥ 20 µM
HLA-B*40:01; [17]
  Kd: ≥ 20 µM
HLA-B*44:02; [17]
  Kd: ≥ 20 µM
HLA-B*58:01; [17]
  Kd: ≥ 20 µM

## HPGFTVIALF
HLA-B*35:01; [18]
  Kd: 101 nM
HLA-B*53:01; [18]
  Kd: 87.9 nM

## HVAAFSSLI
HLA-A*02:01 [11]
  Kd: 61.3 nM
HLA-A*26:01 [12]
  Kd: 57.5 nM

## ILAAVSVSPL
HLA-A*02:03
  Kd: 13 nM
HLA-B*15:01 [3]; [14]
  Kd: 28.9 nM

## ILLRKGHVF
HLA-A*01:01 [5]; [19]
  Kd: ≥ 20 µM
HLA-A*02:01 [6]; [19]
  Kd: ≥ 20 µM
HLA-A*03:01; [19]
  Kd: ≥ 20 µM
HLA-A*11:01; [19]
  Kd: ≥ 20 µM
HLA-A*24:03; [20]
  Kd: 4.28 µM
HLA-A*26:01 [7]; [19]
  Kd: ≥ 20 µM
HLA-A*31:01; [19]
  Kd: ≥ 20 µM
HLA-A*69:01; [19]
  Kd: ≥ 20 µM
HLA-B*07:02 [8]; [20]
  Kd: 10 µM
HLA-B*08:01 [9]; [20]
  Kd: 0.107 µM
HLA-B*15:01 [10]; [20]
  Kd: 115 nM
HLA-B*27:05; [19]
  Kd: ≥ 20 µM
HLA-B*40:01; [19]
  Kd: ≥ 20 µM
HLA-B*44:02; [19]
  Kd: ≥ 20 µM
HLA-B*58:01; [19]
  Kd: ≥ 20 µM

## ISKNAFSCM
HLA-B*15:01 [3]; [15]
  Kd: 78.1 nM

## ITKINTHLA
HLA-A*30:01; [15]
  Kd: 14.9 nM
HLA-A*32:01; [15]
  Kd: ≥ 77800 nM
HLA-B*08:01 [2]; [15]
  Kd: ≥ 22100 nM
HLA-B*15:01 [3]; [15]
  Kd: 2890 nM
HLA-B*15:03; [15]
  Kd: ≥ 51400 nM

## IVIGVGDSAL
HLA-B*15:01 [3]; [16]
  Kd: 27.8 nM

## KGKAAAFAK
HLA-A*30:01; [15]
  Kd: 3.12 nM
HLA-A*32:01; [15]
  Kd: ≥ 56000 nM
HLA-B*08:01 [2]; [15]
  Kd: ≥ 77700 nM
HLA-B*15:01 [3]; [15]
  Kd: 12000 nM
HLA-B*15:03; [15]
  Kd: 1900 nM

## KLVMAFIAF
HLA-A*23:01; [18]
  Kd: 4820 nM
HLA-A*32:01; [18]
  Kd: 1180 nM
HLA-B*15:01 [3]; [18]
  Kd: 1.39 nM

## KSIEQHPVV
HLA-A*30:01; [15]
  Kd: 2.7 nM
HLA-A*32:01; [15]
  Kd: 1910 nM
HLA-B*08:01 [2]; [15]
  Kd: 11700 nM
HLA-B*15:01 [3]; [15]
  Kd: 70.5 nM
HLA-B*15:03; [15]
  Kd: 79.6 nM

## KSSPETQQM
HLA-A*30:01; [15]
  Kd: 1130 nM
HLA-A*32:01; [15]
  Kd: 464 nM
HLA-B*08:01 [2]; [15]
  Kd: 2350 nM
HLA-B*15:01 [3]; [15]
  Kd: 30.4 nM
HLA-B*15:03; [15]
  Kd: 108 nM

## LESQHIISF
HLA-B*15:01 [3]; [21]
  Kd: 57.1 nM
HLA-B*15:03; [21]
  Kd: 28.4 nM

## LLMRTTWAF
HLA-A*23:01; [16]
  Kd: 75.4 nM
HLA-A*24:02
  Kd: 24.4 nM
HLA-A*32:01; [16]
  Kd: 1.69 nM
HLA-B*08:01 [2]; [16]
  Kd: 54.7 nM
HLA-B*15:01 [3]; [16]
  Kd: 1.08 nM

## LLVQRVTSV
HLA-B*15:03; [21]
  Kd: 285 nM

## LLYMFPNLF
HLA-A*32:01; [15]
  Kd: 89.7 nM
HLA-B*15:03; [15]
  Kd: 0.109 nM

## LMLVTPSMAM
HLA-B*15:01 [3]; [18]
  Kd: 7.08 nM

## LPDYGELTL
HLA-B*07:02 [4]; [16]
  Kd: 67.8 nM
HLA-B*35:01; [16]
  Kd: 100 nM
HLA-B*51:01; [16]
  Kd: 1230 nM
HLA-B*53:01; [16]
  Kd: 77.1 nM

## LPPEKCDTLL
HLA-B*08:01 [2]; [22]
  Kd: 707 nM
HLA-B*35:01; [22]
  Kd: 5980 nM

## LQRKHGGSL
HLA-B*07:02 [4]; [16]
  Kd: 58.2 nM
HLA-B*08:01 [2]; [16]
  Kd: 57.4 nM
HLA-B*15:01 [3]; [16]
  Kd: 26.2 nM

## LTFKACDHI
HLA-A*30:01; [15]
  Kd: 81.5 nM
HLA-A*32:01; [15]
  Kd: 18800 nM
HLA-B*08:01 [2]; [15]
  Kd: 838 nM
HLA-B*15:01 [3]; [15]
  Kd: 973 nM
HLA-B*15:03; [15]
  Kd: 845 nM

## NATDTWVTY
HLA-A*01:01 [13]; [18]
  Kd: 144 nM
HLA-B*35:01; [18]
  Kd: 20.9 nM

## QLIPCMDVV
HLA-A*02:01 [1]; source organism: Triticum aestivum
  Kd: 147 nM

## QPFLALGFFL
HLA-B*07:02 [4]; [22]
  Kd: 577 nM
HLA-B*35:01; [22]
  Kd: 200 nM
HLA-B*51:01; [22]
  Kd: ≥ 69600 nM

## RAKGSRAIWY
HLA-A*30:02
  Kd: 77 nM
HLA-B*15:01 [3]; [16]
  Kd: 36.1 nM

## RPMPGTRKVM
HLA-B*07:02 [4]; [23]
  Kd: 1.13 nM
HLA-B*35:01; [23]
  Kd: 8170 nM

## RPTPTGTVM
HLA-B*07:02 [4]; [22]
  Kd: 1.98 nM
HLA-B*35:01; [22]
  Kd: 1430 nM

## RRLLKFRVE
HLA-A*30:01; [21]
  Kd: 1040 nM
HLA-A*32:01; [21]
  Kd: ≥ 34900 nM
HLA-B*08:01 [2]; [21]
  Kd: 128 nM
HLA-B*15:01 [3]; [21]
  Kd: ≥ 55000 nM
HLA-B*15:03; [21]
  Kd: 14900 nM

## SDTRSVNSF
HLA-B*15:03; [21]
  Kd: 92.7 nM

## SIIVLFQRF
HLA-B*08:01 [2]; [15]
  Kd: 8550 nM
HLA-B*15:01 [3]; [15]
  Kd: 1.09 nM

## SKSRRLNLF
HLA-B*15:03; [15]
  Kd: 2.36 nM

## TVIDLDPIPY
HLA-A*01:01 [13]; [14]
  Kd: 1540 nM
HLA-B*15:01 [3]; [14]
  Kd: 1.83 nM

## VEGEGLHKL
HLA-B*44:02; source organism: Dengue virus 1 Singapore/S275/1990
  Kd: ≥ 20 µM

## VIIMAINVF
HLA-B*15:01 [3]; [15]
  Kd: 26.4 nM
HLA-B*15:03; [15]
  Kd: 2030 nM

## WKVLSIMAF
HLA-B*15:03; [21]
  Kd: 9.29 nM

## WSFLEDRVY
HLA-A*01:01 [5]; [24]
  Kd: 2.27 µM
HLA-A*02:01 [6]; [24]
  Kd: ≥ 20 µM
HLA-A*03:01; [24]
  Kd: ≥ 20 µM
HLA-A*11:01; [24]
  Kd: ≥ 20 µM
HLA-A*24:03; [24]
  Kd: ≥ 20 µM
HLA-A*26:01 [7]; [24]
  Kd: ≥ 20 µM
HLA-A*31:01; [24]
  Kd: ≥ 20 µM
HLA-A*69:01; [24]
  Kd: ≥ 20 µM
HLA-B*07:02 [8]; [24]
  Kd: ≥ 20 µM
HLA-B*08:01 [9]; [24]
  Kd: ≥ 20 µM
HLA-B*15:01 [10]; [24]
  Kd: 42 nM
HLA-B*27:05; [24]
  Kd: ≥ 20 µM
HLA-B*40:01; [24]
  Kd: ≥ 20 µM
HLA-B*44:02; [24]
  Kd: ≥ 20 µM
HLA-B*58:01; [24]
  Kd: 0.484 µM
